Source: patent publication US11629364B2, “Methods for synthesizing anticoagulant polysaccharides” (OPTIMVIA, LLC, priority 2019, dated 2023)

B1: SEQ ID NO: 18: engineered aryl sulfate-dependent 6OST enzyme, mutant of isoform 1 of the mouse 6OST enzyme (protein)
chain: MKYYFPVRELERSLRFDMKGDDVIVFLHIGHTGGTTFGRHLVQNVRLEVPCDCRPGQKKCTCYRPNRRETWLFSRFSTGWSCGTNADWTELTNCVPGVLDRRDPAGLRSPRKFYYITLLRDPVSRYLGGWRHHQRGGTNKTSLHMCDGRTPTPEELPPCYEGTDWSGCTLQEFMDCPYNLANNRQVRMLADLSLVGCYNLSFIPESKRAQLLLESAKKNLRGMAFFGLTEFQRKTQYLFERTFNLKFIRPFMQYNSTRAGGVEVDEDTIRHIEELNDLDMQLYDYAKDLFQQRYQYKRQLERREQRLRNREE
modifications: Amino acid sequence encoding for engineered arylsulfate-dependent 6-O-sulfotransferase variant 1
notes: engineered aryl sulfate-dependent 6OST enzyme, mutant of isoform 1 of the mouse 6OST enzyme
B2: SEQ ID NO: 45: mutant of residues 67-377 of the pig 6OST enzyme, SEQ ID NO: 18 mutations (protein)
chain: MKYYFPVRELERSLHFDMKGDDVIVFLHIGHTGGTTFGRHLVQNVRLEVPCDCRPGQKKCTCYRPNRRETWLFSRFSTGWSCGTNADWTELTNCVPGVLDRRDPAALRTPRKFYYITLLRDPVSRYLGGWRHHQRGGTNKTSLHMCDGRTPTPEELPPCYEGTDWSGCTLQEFMDCPYNLANNRQVRMLADLSLVGCYNLSFIPEGKRSQLLLESAKKNLRGMAFFGLTEFQRKTQYLFERTFNLKFIRPFMQYNSTRAGGVEVGEDTIRRIEELNDLDMQLYDYARDLFQQRYQYKRQLERRQQRLRSREE
modifications: Amino acid sequence encoding for engineered arylsulfate-dependent 6-O-sulfotransferase variant 6
B3: SEQ ID NO: 22: engineered aryl sulfate-dependent 6OST enzyme, mutant of isoform 1 of the mouse 6OST enzyme (protein)
chain: MKYYFPVRELERSLRFDMKGDDVIVFLHIGHTGGTTFGRHLVQNVRLEVPCDCRPGQKKCTCYRPNRRETWLFSRFSTGWSCGSHADWTELTNCVPGVLDRRDPAGLRSPRKFYYITLLRDPVSRYLSGWRHHQRGGANKTSLHMCDGRTPTPEELPPCYEGTDWSGCTLQEFMDCPYNLGNNRQVRMLADLSLVGCYNLSFIPESKRAQLLLESAKKNLRGMAFFGLTEFQRKTQYLFERTFNLKFIRPFMQYNSTRAGGVEVDEDTIRHIEELNDLDMQLYDYAKDLFQQRYQYKRQLERREQRLRNREE
modifications: Amino acid sequence encoding for engineered arylsulfate-dependent 6-O-sulfotransferase variant 3
notes: as for B1
B4: SEQ ID NO: 20: engineered aryl sulfate-dependent 6OST enzyme, mutant of isoform 1 of the mouse 6OST enzyme (protein)
chain: MKYYFPVRELERSLRFDMKGDDVIVFLHIGHTGGTTFGRHLVQNVRLEVPCDCRPGQKKCTCYRPNRRETWLFSRFSTGWSCGTRADWTELTNCVPGVLDRRDPAGLRSPRKFYYITLLRDPVSRYLSHWRHTQRGGANKTGLHMCDGRTPTPEELPPCYEGTDWSGCTLQEFMDCPYNLGNNRQVRMLADLSLVGCYNLSFIPESKRAQLLLESAKKNLRGMAFFGLTEFQRKTQYLFERTFNLKFIRPFMQYNSTRAGGVEVDEDTIRHIEELNDLDMQLYDYAKDLFQQRYQYKRQLERREQRLRNREE
modifications: Amino acid sequence encoding for engineered arylsulfate-dependent 6-O-sulfotransferase variant 2
notes: as for B1
B5: SEQ ID NO: 46: mutant of residues 67-377 of the pig 6OST enzyme, SEQ ID NO: 20 mutations (protein)
chain: MKYYFPVRELERSLHFDMKGDDVIVFLHIGHTGGTTFGRHLVQNVRLEVPCDCRPGQKKCTCYRPNRRETWLFSRFSTGWSCGTRADWTELTNCVPGVLDRRDPAALRTPRKFYYITLLRDPVSRYLSHWRHTQRGGANKTGLHMCDGRTPTPEELPPCYEGTDWSGCTLQEFMDCPYNLGNNRQVRMLADLSLVGCYNLSFIPEGKRSQLLLESAKKNLRGMAFFGLTEFQRKTQYLFERTFNLKFIRPFMQYNSTRAGGVEVGEDTIRRIEELNDLDMQLYDYARDLFQQRYQYKRQLERRQQRLRSREE
modifications: Amino acid sequence encoding for engineered arylsulfate-dependent 6-O-sulfotransferase variant 7
B6: SEQ ID NO: 47: mutant of residues 67-377 of the pig 6OST enzyme, SEQ ID NO: 22 mutations (protein)
chain: MKYYFPVRELERSLHFDMKGDDVIVFLHIGHTGGTTFGRHLVQNVRLEVPCDCRPGQKKCTCYRPNRRETWLFSRFSTGWSCGSHADWTELTNCVPGVLDRRDPAALRTPRKFYYITLLRDPVSRYLSGWRHHQRGGANKTSLHMCDGRTPTPEELPPCYEGTDWSGCTLQEFMDCPYNLGNNRQVRMLADLSLVGCYNLSFIPEGKRSQLLLESAKKNLRGMAFFGLTEFQRKTQYLFERTFNLKFIRPFMQYNSTRAGGVEVGEDTIRRIEELNDLDMQLYDYARDLFQQRYQYKRQLERRQQRLRSREE
modifications: Amino acid sequence encoding for engineered arylsulfate-dependent 6-O-sulfotransferase variant 8
B7: SEQ ID NO: 48: mutant of the full-length pig 6OST enzyme, SEQ ID NO: 18 mutations (protein)
chain: MRRRRAGSRTMVERASKFVLVVAGSACFMLILYQYAGPGLSLGAPGGRAPPDDLDLFPTPDPHYEKKYYFPVRELERSLHFDMKGDDVIVFLHIGHTGGTTFGRHLVQNVRLEVPCDCRPGQKKCTCYRPNRRETWLFSRFSTGWSCGTNADWTELTNCVPGVLDRRDPAALRTPRKFYYITLLRDPVSRYLGGWRHHQRGGTNKTSLHMCDGRTPTPEELPPCYEGTDWSGCTLQEFMDCPYNLANNRQVRMLADLSLVGCYNLSFIPEGKRSQLLLESAKKNLRGMAFFGLTEFQRKTQYLFERTFNLKFIRPFMQYNSTRAGGVEVGEDTIRRIEELNDLDMQLYDYARDLFQQRYQYKRQLERRQQRLRSREERLLHRAKEAPPRGDTEEPGRVPTEDYMSHIIEKW
modifications: Amino acid sequence encoding for engineered arylsulfate-dependent 6-O-sulfotransferase variant 9
B8: SEQ ID NO: 49: mutant of the full-length pig 6OST enzyme, SEQ ID NO: 20 mutations (protein)
chain: MRRRRAGSRTMVERASKFVLVVAGSACFMLILYQYAGPGLSLGAPGGRAPPDDLDLFPTPDPHYEKKYYFPVRELERSLHFDMKGDDVIVFLHIGHTGGTTFGRHLVQNVRLEVPCDCRPGQKKCTCYRPNRRETWLFSRFSTGWSCGTRADWTELTNCVPGVLDRRDPAALRTPRKFYYITLLRDPVSRYLSHWRHTQRGGANKTGLHMCDGRTPTPEELPPCYEGTDWSGCTLQEFMDCPYNLGNNRQVRMLADLSLVGCYNLSFIPEGKRSQLLLESAKKNLRGMAFFGLTEFQRKTQYLFERTFNLKFIRPFMQYNSTRAGGVEVGEDTIRRIEELNDLDMQLYDYARDLFQQRYQYKRQLERRQQRLRSREERLLHRAKEAPPRGDTEEPGRVPTEDYMSHIIEKW
modifications: Amino acid sequence encoding for engineered arylsulfate-dependent 6-O-sulfotransferase variant 10
B9: SEQ ID NO: 50: mutant of the full-length pig 6OST enzyme, SEQ ID NO: 22 mutations (protein)
chain: MRRRRAGSRTMVERASKFVLVVAGSACFMLILYQYAGPGLSLGAPGGRAPPDDLDLFPTPDPHYEKKYYFPVRELERSLHFDMKGDDVIVFLHIGHTGGTTFGRHLVQNVRLEVPCDCRPGQKKCTCYRPNRRETWLFSRFSTGWSCGSHADWTELTNCVPGVLDRRDPAALRTPRKFYYITLLRDPVSRYLSGWRHHQRGGANKTSLHMCDGRTPTPEELPPCYEGTDWSGCTLQEFMDCPYNLGNNRQVRMLADLSLVGCYNLSFIPEGKRSQLLLESAKKNLRGMAFFGLTEFQRKTQYLFERTFNLKFIRPFMQYNSTRAGGVEVGEDTIRRIEELNDLDMQLYDYARDLFQQRYQYKRQLERRQQRLRSREERLLHRAKEAPPRGDTEEPGRVPTEDYMSHIIEKW
modifications: Amino acid sequence encoding for engineered arylsulfate-dependent 6-O-sulfotransferase variant 11

Experiment: 6OST activity: 6-O sulfated products detected by LCMS after lyase digestion
Type: biochemical
Conditions: for 6OST sulfotransferase activity by sulfo group donor: NCS or PNS as sulfo donor, D0S6 and D2S6 disaccharides; for 6OST activity: N,2,6-HS products by MS: procedures of Example 4, expected
Experimental: A study was conducted in accordance with embodiments of the present disclosure to confirm 6OST activity of enzymes comprising the amino acid sequence of SEQ ID NO: 18, SEQ ID NO: 20, or SEQ ID NO: 22 by detecting the presence of 6-O sulfated polysaccharide products as a result of their sulfotransfer reaction, using a similar LCMS procedure as in Example 3, except that the sulfo acceptor polysaccharide was prepared by chemically 6-O desulfating commercially available heparin (CAS code: 9041-08-1, available from Millipore Sigma), according to the procedure provided by Kariya, Y., et al., (2000) J. Biol. Chem. 275 (34):25949-25958).

Molecule | 6OST sulfotransferase activity by sulfo group donor | 6OST activity: N,2,6-HS products by MS | relative 6OST activity among engineered enzymes (comparing peak area percentages of D0S6 and D2S6 disaccharides)
B1 | active when NCS was the sulfo group donor |  | 
B2 |  | confirm the presence of N,2,6-HS products | 
B3 | active when PNS was the sulfo group donor |  | the most active
B4 | active when NCS was the sulfo group donor |  | 
B5 |  | confirm the presence of N,2,6-HS products | 
B6 |  | confirm the presence of N,2,6-HS products | 
B7 |  | confirm the presence of N,2,6-HS products | 
B8 |  | confirm the presence of N,2,6-HS products | 
B9 |  | confirm the presence of N,2,6-HS products | 
